Data taken from patent publication US20260184748A1 (University of Pennsylvania, published 2026).
Where no end group is shown, it is not given here.

Assays:
Assay in all cases: cell-based or functional assay
[1] = target: T1, HCRTR1 (UniProt O43613 1-425)
T1 sequence (looked up): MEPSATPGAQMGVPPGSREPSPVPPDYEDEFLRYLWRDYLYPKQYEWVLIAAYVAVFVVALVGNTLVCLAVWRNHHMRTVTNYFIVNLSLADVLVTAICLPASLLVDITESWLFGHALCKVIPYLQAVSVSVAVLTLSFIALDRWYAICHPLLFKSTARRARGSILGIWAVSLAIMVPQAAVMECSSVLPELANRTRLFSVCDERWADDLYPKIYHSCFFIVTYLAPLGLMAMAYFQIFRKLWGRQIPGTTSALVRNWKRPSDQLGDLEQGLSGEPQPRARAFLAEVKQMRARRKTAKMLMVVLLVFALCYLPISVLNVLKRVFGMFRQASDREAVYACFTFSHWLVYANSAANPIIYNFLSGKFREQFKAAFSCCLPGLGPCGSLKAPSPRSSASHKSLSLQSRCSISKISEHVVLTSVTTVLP

[2] = target: EBI2 (UniProt P32249 1-361)
[3] = target: PTHR2 (UniProt P49190 25-550)
[4] = target: T2, CCR9 (UniProt P51686 1-369, limits assumed)
T2 sequence (looked up): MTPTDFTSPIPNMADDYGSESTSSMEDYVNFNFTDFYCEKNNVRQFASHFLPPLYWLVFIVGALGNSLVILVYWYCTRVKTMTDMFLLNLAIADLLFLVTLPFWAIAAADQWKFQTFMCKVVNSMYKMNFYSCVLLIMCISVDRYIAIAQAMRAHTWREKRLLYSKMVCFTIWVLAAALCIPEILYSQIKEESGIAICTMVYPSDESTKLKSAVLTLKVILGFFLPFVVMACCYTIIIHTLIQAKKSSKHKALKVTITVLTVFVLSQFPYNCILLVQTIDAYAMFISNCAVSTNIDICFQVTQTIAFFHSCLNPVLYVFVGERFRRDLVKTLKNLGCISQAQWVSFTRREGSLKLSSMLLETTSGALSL

[5] = target: T3, CCR3 (UniProt P51677 1-355)
T3 sequence (looked up): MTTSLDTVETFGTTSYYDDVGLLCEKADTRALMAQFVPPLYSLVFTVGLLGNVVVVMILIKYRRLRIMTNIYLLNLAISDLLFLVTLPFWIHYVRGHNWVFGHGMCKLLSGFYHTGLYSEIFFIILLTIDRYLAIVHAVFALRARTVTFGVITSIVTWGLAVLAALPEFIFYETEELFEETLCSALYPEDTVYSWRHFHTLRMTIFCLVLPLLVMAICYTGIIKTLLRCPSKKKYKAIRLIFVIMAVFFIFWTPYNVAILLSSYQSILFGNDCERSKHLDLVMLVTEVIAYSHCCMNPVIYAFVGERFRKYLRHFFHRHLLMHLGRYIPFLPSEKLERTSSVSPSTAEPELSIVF

[6] = target: CCR5 (UniProt P51681 1-352)
[7] = target: PPYR1 (UniProt P50391 1-375)
[8] = target: T4, BDKRB2 (UniProt P30411 1-391, limits assumed)
T4 sequence (looked up): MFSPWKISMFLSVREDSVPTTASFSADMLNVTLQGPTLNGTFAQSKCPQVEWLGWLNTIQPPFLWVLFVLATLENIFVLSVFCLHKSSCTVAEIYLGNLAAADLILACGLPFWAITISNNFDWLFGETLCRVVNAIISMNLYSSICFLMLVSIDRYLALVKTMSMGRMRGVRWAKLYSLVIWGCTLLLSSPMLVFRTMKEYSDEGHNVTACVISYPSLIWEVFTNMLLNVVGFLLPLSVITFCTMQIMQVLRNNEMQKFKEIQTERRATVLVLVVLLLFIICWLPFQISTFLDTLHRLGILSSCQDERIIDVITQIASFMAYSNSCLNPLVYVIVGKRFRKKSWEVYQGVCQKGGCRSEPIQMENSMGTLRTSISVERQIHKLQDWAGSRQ

[9] = target: T5, GPR1 (UniProt P46091 1-355)
T5 sequence (looked up): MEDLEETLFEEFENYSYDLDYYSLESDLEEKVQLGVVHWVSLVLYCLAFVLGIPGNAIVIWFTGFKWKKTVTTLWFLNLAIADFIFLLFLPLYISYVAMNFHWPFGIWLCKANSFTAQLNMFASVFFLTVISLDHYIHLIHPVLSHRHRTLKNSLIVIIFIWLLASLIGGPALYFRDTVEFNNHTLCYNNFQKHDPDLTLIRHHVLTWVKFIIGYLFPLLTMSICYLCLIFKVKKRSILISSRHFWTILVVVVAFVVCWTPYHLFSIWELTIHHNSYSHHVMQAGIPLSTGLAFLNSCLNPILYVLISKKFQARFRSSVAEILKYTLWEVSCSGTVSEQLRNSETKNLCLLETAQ

[10] = target: NPBWR2 (UniProt P48146 1-333)
[11] = target: T6, GLP2R (UniProt O95838 1-553, limits assumed)
T6 sequence (looked up): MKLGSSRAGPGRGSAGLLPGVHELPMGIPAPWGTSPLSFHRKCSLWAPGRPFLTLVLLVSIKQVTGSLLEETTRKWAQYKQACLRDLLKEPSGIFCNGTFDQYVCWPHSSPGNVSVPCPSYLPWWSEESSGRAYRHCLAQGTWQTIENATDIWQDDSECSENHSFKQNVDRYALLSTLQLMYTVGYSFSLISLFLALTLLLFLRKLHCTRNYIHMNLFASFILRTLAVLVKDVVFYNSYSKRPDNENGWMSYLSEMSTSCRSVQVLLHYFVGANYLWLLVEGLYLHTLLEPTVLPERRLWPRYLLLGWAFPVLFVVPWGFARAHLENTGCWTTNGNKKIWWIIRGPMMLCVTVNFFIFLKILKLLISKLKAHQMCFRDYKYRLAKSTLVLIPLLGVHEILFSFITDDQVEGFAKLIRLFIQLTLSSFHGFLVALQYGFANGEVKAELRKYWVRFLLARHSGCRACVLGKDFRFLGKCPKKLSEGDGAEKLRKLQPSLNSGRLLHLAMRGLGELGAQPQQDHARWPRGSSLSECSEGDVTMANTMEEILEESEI

Sequence of EBI2 (P32249 whole entry): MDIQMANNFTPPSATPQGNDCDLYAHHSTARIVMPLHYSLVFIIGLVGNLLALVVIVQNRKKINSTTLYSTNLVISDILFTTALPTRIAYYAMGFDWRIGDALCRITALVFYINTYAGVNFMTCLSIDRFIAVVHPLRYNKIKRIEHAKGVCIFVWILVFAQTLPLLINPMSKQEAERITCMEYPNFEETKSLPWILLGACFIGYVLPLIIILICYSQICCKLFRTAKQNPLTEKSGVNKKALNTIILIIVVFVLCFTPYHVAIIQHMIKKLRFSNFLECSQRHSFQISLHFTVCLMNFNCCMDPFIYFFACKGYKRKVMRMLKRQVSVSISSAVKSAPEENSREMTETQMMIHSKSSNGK
Sequence of CCR5 (P51681 whole entry): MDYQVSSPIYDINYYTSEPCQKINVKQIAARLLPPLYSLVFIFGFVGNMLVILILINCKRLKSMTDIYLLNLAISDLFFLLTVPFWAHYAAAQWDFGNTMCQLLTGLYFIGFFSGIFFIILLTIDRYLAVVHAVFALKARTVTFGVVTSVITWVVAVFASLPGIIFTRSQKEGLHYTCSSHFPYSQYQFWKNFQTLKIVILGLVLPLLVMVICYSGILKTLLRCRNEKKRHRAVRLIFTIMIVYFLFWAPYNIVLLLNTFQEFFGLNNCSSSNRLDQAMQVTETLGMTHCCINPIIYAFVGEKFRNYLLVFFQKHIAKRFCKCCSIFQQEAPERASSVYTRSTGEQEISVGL
Sequence of NPBWR2 (P48146 whole entry): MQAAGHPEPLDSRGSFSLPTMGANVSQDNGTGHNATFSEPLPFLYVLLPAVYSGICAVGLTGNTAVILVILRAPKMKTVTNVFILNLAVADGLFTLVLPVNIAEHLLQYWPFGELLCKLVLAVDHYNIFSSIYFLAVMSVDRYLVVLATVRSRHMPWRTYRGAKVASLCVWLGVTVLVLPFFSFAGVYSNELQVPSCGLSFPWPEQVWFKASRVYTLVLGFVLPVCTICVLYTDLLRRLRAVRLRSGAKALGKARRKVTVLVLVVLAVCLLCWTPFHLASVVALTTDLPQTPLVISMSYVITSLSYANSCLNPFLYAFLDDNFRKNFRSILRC
Sequence of PPYR1 (P50391 whole entry): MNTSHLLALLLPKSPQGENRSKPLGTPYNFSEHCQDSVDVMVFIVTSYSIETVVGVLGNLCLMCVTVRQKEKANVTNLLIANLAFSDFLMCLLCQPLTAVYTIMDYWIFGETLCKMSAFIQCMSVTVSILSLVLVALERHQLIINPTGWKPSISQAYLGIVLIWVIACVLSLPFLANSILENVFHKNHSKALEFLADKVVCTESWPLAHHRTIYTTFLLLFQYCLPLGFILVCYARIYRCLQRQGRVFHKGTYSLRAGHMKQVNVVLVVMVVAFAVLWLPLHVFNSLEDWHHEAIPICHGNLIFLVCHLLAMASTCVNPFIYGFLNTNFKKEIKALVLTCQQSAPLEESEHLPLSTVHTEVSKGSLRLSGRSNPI
Sequence of PTHR2 (P49190 25-550 limits assumed): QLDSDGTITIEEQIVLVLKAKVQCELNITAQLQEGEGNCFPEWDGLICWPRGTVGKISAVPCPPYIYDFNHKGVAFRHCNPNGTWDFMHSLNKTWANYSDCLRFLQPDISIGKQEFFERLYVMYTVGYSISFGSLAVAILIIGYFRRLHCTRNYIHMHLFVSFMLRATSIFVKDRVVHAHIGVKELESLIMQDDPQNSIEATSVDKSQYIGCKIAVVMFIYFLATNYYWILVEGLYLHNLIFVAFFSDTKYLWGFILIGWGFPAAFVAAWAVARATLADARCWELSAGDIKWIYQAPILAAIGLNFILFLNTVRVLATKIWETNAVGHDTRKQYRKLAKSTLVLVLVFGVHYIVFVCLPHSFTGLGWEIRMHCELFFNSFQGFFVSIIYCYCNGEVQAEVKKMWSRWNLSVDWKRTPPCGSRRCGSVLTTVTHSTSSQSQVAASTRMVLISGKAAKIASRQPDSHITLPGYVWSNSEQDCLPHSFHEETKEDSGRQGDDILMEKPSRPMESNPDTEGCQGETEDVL

B1: octadecaneuropeptide (ODN) (peptide)
peptide: QATVGDVNTDRPGLLDLK
modifications: also: synthesised on Rink amide resin, C-terminal amide not given here outright
% Activity, arrestin, antagonist mode, 2.5 uM [1]: -1.7% | % Activity, arrestin, antagonist mode, 2.5 uM [2]: -27.3% | % Activity, arrestin, antagonist mode, 2.5 uM [3]: 4.5% | % Activity, arrestin, antagonist mode, 2.5 uM [4]: -10.1% | % Activity, arrestin, antagonist mode, 2.5 uM [5]: -5.8% | % Activity, arrestin, antagonist mode, 2.5 uM [6]: -16.1% | % Activity, arrestin, antagonist mode, 2.5 uM [7]: -11.4% | % Activity, arrestin, antagonist mode, 2.5 uM [8]: -1.7% | % Activity, arrestin, antagonist mode, 2.5 uM [9]: -1.3% | % Activity, arrestin, antagonist mode, 2.5 uM [10]: -1.1% | % Activity, arrestin, antagonist mode, 2.5 uM [11]: -15.4%
